{"source": "paper PMC7026407", "about": "“Multiple Growth Factor Targeting by Engineered Insulin-like Growth Factor Binding Protein-3 Augments EGF Receptor Tyrosine Kinase Inhibitor Efficacy” (Scientific Reports, 2020)", "binders": {"B1": {"name": "D3 (Fc fusion)", "chain": "GASSAGLGPVVRCEPCDARALAQCAPPPAVCAELVREPGCGCCLTCALSEGQPCGIYTERCGSGLRCQPSPDEARPLQALLDGRGLCVNASAVSRPAPPAPGNASESEEDRSAGSVESPSVSSTHRVSDPKFHPKGHAKVDYESQSTDTQNFSSESKRETEYGPCRREMEDTLNHLKFLNVLSPRGVHIPNCDKKGFYKKKQCRPSKGRKRGFCWCVDKYGQPLPGYTTKGKEDVHCYSMQSK"}, "B2": {"name": "VEGF-B (ligand)", "chain": "PVSQPDAPGHQRKVVSWIDVYTRATCQPREVVVPLTVELMGTVAKQLVPSCVTVQRCGGCCPDDGLECVPTGQHQVRMQILMIRYPSSQLGEMSLEEHSQCECRPKKKDSAVKPDSPRPLCPRCTQHHQRPDPRTCRCRCRRRSFLRCQGRGLELNPDTCRCRKLRR", "modifications": "Disulfide-linked homodimer. R&D 751-VE taken as the VEGF-B167 isoform; isoform and limits are not printed."}, "B3": {"name": "neuregulin-1 (ligand)", "chain": "SERKEGRGKGKGKKKERGSGKKPESAAGSQSPALPPRLKEMKSQESAAGSKLVLRCETSSEYSSLRFKWFKNGNELNRKNKPQNIKIQKKPGKSELRINKASLADSGEYMCKVISKLGNDSASANITIVESNEIITGMPASTEGAYVSSESPIRISVSTEGANTSSSTSTSTTGTSHLVKCAEKEKTFCVNGGECFMVKDLSNPSRYLCKCPNEFTGDRCQNYVMASFYKHLGIEFMEAEELYQK", "modifications": "R&D 377-HB, neuregulin extracellular domain, taken as NRG1-beta1 Ser2-Lys246; the paper prints only the catalogue number and 'extracellular domain'."}, "B4": {"name": "D3 (Fc fusion)", "chain": "GASSAGLGPVVRCEPCDARALAQCAPPPAVCAELVREPGCGCCLTCALSEGQPCGIYTERCGSGLRCQPSPDEARPLQALLDGRGLCVNASAVSRPAPPAPGNASESEEDRSAGSVESPSVSSTHRVSDPKFHPKGHAKVDYESQSTDTQNFSSESKRETEYGPCRREMEDTLNHLKFLNVLSPRGVHIPNCDKKGFYKKKQCRPSKGRKRGFCWCVDKYGQPLPGYTTKGKEDVHCYSMQSK", "modifications": "Secreted Fc-fusion dimer; Fc omitted. Deletions 121-126, 166-174 and 180-185 are in 56662 precursor numbering (UniProt = construct + 2). The IGFBP-2 signal peptide is removed. / Disulfide-linked …"}}, "key": {"[1]": {"target": "T1, hepatocyte growth factor (UniProt P14210 32-728)", "T1 construct": "hepatocyte growth factor, commercial; Mature HGF is a two-chain (alpha/beta) product of one precursor; the preparation is said to hold both processed and unprocessed forms; also called HGF; source: expressed in insect cells", "T1 sequence (P14210 32-728)": "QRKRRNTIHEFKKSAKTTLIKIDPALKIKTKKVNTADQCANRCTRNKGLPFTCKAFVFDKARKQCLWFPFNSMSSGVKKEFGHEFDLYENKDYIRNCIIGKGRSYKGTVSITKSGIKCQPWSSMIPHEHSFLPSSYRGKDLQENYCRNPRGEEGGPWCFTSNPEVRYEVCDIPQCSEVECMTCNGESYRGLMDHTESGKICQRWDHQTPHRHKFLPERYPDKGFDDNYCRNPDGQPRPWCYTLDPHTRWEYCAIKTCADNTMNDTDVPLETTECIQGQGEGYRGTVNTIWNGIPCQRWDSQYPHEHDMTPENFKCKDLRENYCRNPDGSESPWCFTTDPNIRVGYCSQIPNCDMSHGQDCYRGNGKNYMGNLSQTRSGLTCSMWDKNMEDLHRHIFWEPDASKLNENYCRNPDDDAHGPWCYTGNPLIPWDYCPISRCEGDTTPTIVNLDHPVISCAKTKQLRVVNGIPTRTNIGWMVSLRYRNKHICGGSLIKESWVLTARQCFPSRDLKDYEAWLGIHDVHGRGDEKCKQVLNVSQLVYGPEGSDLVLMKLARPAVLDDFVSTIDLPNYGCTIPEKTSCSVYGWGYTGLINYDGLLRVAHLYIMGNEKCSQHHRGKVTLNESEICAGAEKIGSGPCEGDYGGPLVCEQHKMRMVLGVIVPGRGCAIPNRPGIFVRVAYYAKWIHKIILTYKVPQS", "experiment": "SPR; growth factor immobilised on a CM4 chip instead of the binding protein (asterisk in Table 1), binding protein or Fc fusion as analyte; HBS-P, 25 °C; regeneration with 4 M MgCl2 then 5 M guanidinium chloride; 1:1 binding analysis", "settings": "both partners purified"}, "[2]": {"target": "T2, neuregulin-1 (UniProt Q02297 20-241)", "T2 sequence (Q02297 20-241)": "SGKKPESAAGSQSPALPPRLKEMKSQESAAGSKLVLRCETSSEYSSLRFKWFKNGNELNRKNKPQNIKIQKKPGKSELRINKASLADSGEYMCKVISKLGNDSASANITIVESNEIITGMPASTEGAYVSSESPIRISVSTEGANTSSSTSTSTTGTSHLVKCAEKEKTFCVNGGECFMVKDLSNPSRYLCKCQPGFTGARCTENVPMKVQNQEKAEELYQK", "experiment": "SPR; growth factor immobilised on a CM4 chip instead of the binding protein (asterisk in Table 1), binding protein or Fc fusion as analyte; HBS-P, 25 °C; regeneration with 4 M MgCl2 then 5 M guanidinium chloride; 1:1 binding analysis", "settings": "both partners purified"}, "[3]": {"target": "T3, PDGF BB (UniProt P01127 82-190)", "T3 construct": "platelet-derived growth factor B chain; Homodimer of B chains by its name", "T3 sequence (P01127 82-190)": "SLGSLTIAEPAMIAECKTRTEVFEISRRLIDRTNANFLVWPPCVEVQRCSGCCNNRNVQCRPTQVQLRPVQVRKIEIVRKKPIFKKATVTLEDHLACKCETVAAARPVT", "experiment": "SPR; growth factor immobilised on a CM4 chip instead of the binding protein (asterisk in Table 1), binding protein or Fc fusion as analyte; HBS-P, 25 °C; regeneration with 4 M MgCl2 then 5 M guanidinium chloride; 1:1 binding analysis", "settings": "both partners purified"}, "[4]": {"target": "T4, Basic FGF (UniProt P09038 143-288)", "T4 construct": "basic fibroblast growth factor (FGF2), commercial growth factor; also called bFGF", "T4 sequence (P09038 143-288)": "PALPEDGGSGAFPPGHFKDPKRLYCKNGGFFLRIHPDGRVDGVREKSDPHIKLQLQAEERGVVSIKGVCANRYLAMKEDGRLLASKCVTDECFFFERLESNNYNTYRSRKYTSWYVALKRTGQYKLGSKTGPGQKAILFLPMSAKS", "experiment": "SPR; growth factor immobilised on a CM4 chip instead of the binding protein (asterisk in Table 1), binding protein or Fc fusion as analyte; HBS-P, 25 °C; regeneration with 4 M MgCl2 then 5 M guanidinium chloride; 1:1 binding analysis", "settings": "both partners purified"}, "[5]": {"target": "insulin-like growth factor-1 (UniProt P05019 49-118)", "sequence (P05019 49-118)": "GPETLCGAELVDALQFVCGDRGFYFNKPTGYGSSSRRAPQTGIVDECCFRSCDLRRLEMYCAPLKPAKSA", "experiment": "cell-based or functional assay"}, "[6]": {"target": "T1, hepatocyte growth factor", "experiment": "cell-based or functional assay"}, "[7]": {"target": "T2, neuregulin-1", "experiment": "cell-based or functional assay"}, "[8]": {"target": "T3, PDGF BB", "experiment": "cell-based or functional assay"}, "[9]": {"target": "T4, Basic FGF", "experiment": "cell-based or functional assay"}, "[10]": {"target": "T5, 56662 (UniProt P17936-1 28-291)", "T5 construct": "the secretory signal peptide was derived from IGFBP-2; Fc portion of IgG1 added to the C terminus of IGFBP-3; called an Fc dimer; Probably the mature IGFBP-3 after removal of the IGFBP-2 signal peptide; also called IGFBP-3-Fc; BP3-Fc (unmodified IGFBP-3 Fc construct); source: 293 T cells, transfected; conditioned medium purified by proteinA Sepharose; not shown: Fc (IgG1), C-terminal, kept", "experiment": "SPR; IGF binding protein or Fc fusion amine-coupled to a CM4 chip, growth factor as analyte; Biacore T100 or T200, HBS-P, BSA (0.2 mg/ml) or NaCl (0.65 M final) to reduce non-specific binding, 25 °C; 1:1 binding analysis", "settings": "both partners purified"}, "[11]": {"target": "T6, Chimera A", "T6 construct": "signal peptide derived from IGFBP-2; VEGF receptor 1 domain 2, first part of VEGF-trap; VEGF receptor 2 domain 3, second part of VEGF-trap; VEGF-trap inserted between the IGFBP-3 and the Fc domain; also called chA; BP3-VEGF-trap-Fc; source: 293 T cells, transfected; conditioned medium purified by proteinA Sepharose; not shown: Fc (IgG1), C-terminal, kept", "experiment": "SPR; IGF binding protein or Fc fusion amine-coupled to a CM4 chip, growth factor as analyte; Biacore T100 or T200, HBS-P, BSA (0.2 mg/ml) or NaCl (0.65 M final) to reduce non-specific binding, 25 °C; 1:1 binding analysis", "settings": "both partners purified"}, "[12]": {"target": "T7, IGFBP-2 (UniProt P18065 36-325)", "T7 construct": "source: bought (commercially available, carrier-free)", "T7 sequence (looked up)": "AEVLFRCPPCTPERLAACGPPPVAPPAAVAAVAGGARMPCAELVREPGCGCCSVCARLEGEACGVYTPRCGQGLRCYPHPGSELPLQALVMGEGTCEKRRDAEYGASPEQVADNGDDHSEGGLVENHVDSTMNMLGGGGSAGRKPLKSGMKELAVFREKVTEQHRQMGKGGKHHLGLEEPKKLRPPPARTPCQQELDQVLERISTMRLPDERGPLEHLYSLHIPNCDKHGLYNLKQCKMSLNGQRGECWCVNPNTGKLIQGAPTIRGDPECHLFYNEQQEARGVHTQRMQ", "experiment": "SPR; IGF binding protein or Fc fusion amine-coupled to a CM4 chip, growth factor as analyte; Biacore T100 or T200, HBS-P, BSA (0.2 mg/ml) or NaCl (0.65 M final) to reduce non-specific binding, 25 °C; 1:1 binding analysis", "settings": "both partners purified"}, "[13]": {"target": "T8, IGFBP-3 (UniProt P17936 28-291)", "T8 construct": "source: bought (commercially available, carrier-free)", "experiment": "SPR; IGF binding protein or Fc fusion amine-coupled to a CM4 chip, growth factor as analyte; Biacore T100 or T200, HBS-P, BSA (0.2 mg/ml) or NaCl (0.65 M final) to reduce non-specific binding, 25 °C; 1:1 binding analysis", "settings": "both partners purified"}, "[14]": {"target": "T9, IGFBP-7 (UniProt Q16270 27-282)", "T9 construct": "source: bought (commercially available, carrier-free)", "T9 sequence (looked up)": "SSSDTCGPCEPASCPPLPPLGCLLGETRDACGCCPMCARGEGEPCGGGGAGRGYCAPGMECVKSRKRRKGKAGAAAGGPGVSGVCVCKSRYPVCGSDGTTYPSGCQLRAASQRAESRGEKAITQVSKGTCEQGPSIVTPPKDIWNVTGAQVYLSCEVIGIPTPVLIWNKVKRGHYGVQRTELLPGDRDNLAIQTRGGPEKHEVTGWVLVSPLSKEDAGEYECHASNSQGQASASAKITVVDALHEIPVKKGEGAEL", "experiment": "SPR; IGF binding protein or Fc fusion amine-coupled to a CM4 chip, growth factor as analyte; Biacore T100 or T200, HBS-P, BSA (0.2 mg/ml) or NaCl (0.65 M final) to reduce non-specific binding, 25 °C; 1:1 binding analysis", "settings": "both partners purified"}, "[15]": {"target": "T5, 56662", "experiment": "SPR; growth factor immobilised on a CM4 chip instead of the binding protein (asterisk in Table 1), binding protein or Fc fusion as analyte; HBS-P, 25 °C; regeneration with 4 M MgCl2 then 5 M guanidinium chloride; 1:1 binding analysis", "settings": "both partners purified"}, "[16]": {"target": "T6, Chimera A", "experiment": "SPR; growth factor immobilised on a CM4 chip instead of the binding protein (asterisk in Table 1), binding protein or Fc fusion as analyte; HBS-P, 25 °C; regeneration with 4 M MgCl2 then 5 M guanidinium chloride; 1:1 binding analysis", "settings": "both partners purified"}, "[17]": {"target": "VEGF-B (UniProt P49765 22-207)", "experiment": "SPR; growth factor immobilised on a CM4 chip instead of the binding protein (asterisk in Table 1), binding protein or Fc fusion as analyte; HBS-P, 25 °C; regeneration with 4 M MgCl2 then 5 M guanidinium chloride; 1:1 binding analysis", "settings": "both partners purified"}}}
{"binder": "B1", "values": [{"measurement": "Kd", "setting": "[1]", "value": 2.63, "unit": "nM"}, {"measurement": "Kd", "setting": "[2]", "value": 2.62, "unit": "nM"}, {"measurement": "Kd", "setting": "[3]", "value": 5.29, "unit": "nM"}, {"measurement": "Kd", "setting": "[4]", "value": 3.29, "unit": "nM"}, {"measurement": "IC50 of inhibition of IGF1-stimulated proliferation, HUVEC", "setting": "[5]", "value": 7.45, "unit": "nM"}, {"measurement": "IC50 of inhibition of IGF1-stimulated proliferation, Hep3B cells", "setting": "[5]", "value": 21, "unit": "nM"}, {"measurement": "IC50 of inhibition of IGF1-stimulated proliferation, MCF-7 cells", "setting": "[5]", "value": 29, "unit": "nM"}, {"measurement": "IC50 of inhibition of HGF-stimulated proliferation, HUVEC", "setting": "[6]", "value": 56, "unit": "nM"}, {"measurement": "IC50 of inhibition of HGF-stimulated proliferation, Hep3B cells", "setting": "[6]", "value": 58, "unit": "nM"}, {"measurement": "IC50 of inhibition of NRG-stimulated proliferation, Hep3B cells", "setting": "[7]", "value": 43, "unit": "nM"}, {"measurement": "IC50 of inhibition of NRG-stimulated proliferation, MCF-7 cells", "setting": "[7]", "value": 112, "unit": "nM"}, {"measurement": "IC50 of inhibition of PDGF BB-stimulated proliferation, 3T3 cells", "setting": "[8]", "value": 30, "unit": "nM"}, {"measurement": "IC50 of inhibition of bFGF-stimulated proliferation, HUVEC", "setting": "[9]", "value": 39, "unit": "nM"}, {"measurement": "IC50 of inhibition of bFGF-stimulated proliferation, Hep3B cells", "setting": "[9]", "value": 59, "unit": "nM"}, {"measurement": "IC50 of inhibition of bFGF-stimulated proliferation, MCF-7 cells", "setting": "[9]", "value": 26, "unit": "nM"}]}
{"binder": "B2", "values": [{"measurement": "Kd", "setting": "[10]", "value": 14.3, "unit": "nM"}, {"measurement": "Kd", "setting": "[11]", "value": 0.49, "unit": "nM"}, {"measurement": "Kd", "setting": "[12]", "value": 2.82, "unit": "nM"}, {"measurement": "Kd", "setting": "[13]", "value": 16.1, "unit": "nM"}, {"measurement": "Kd", "setting": "[14]", "value": 9.88, "unit": "nM"}]}
{"binder": "B3", "values": [{"measurement": "Kd", "setting": "[15]", "value": 4.66, "unit": "nM"}, {"measurement": "Kd", "setting": "[16]", "value": 1.71, "unit": "nM"}, {"measurement": "Kd", "setting": "[10]", "value": 4.46, "unit": "nM"}, {"measurement": "Kd", "setting": "[11]", "value": 3.21, "unit": "nM"}, {"measurement": "Kd", "setting": "[13]", "value": 2.09, "unit": "nM"}, {"measurement": "Kd", "setting": "[14]", "value": 1600, "unit": "nM"}]}
{"binder": "B4", "values": [{"measurement": "Kd", "setting": "[17]", "value": 19.8, "unit": "nM"}]}
